According to article PMC5389509:
Positions count from the first letter of the chain named.

T1: YxiN S108C/N444C (UniProt P42305 1-479, C61A;C267A;S108C;N444C)
T1 sequence: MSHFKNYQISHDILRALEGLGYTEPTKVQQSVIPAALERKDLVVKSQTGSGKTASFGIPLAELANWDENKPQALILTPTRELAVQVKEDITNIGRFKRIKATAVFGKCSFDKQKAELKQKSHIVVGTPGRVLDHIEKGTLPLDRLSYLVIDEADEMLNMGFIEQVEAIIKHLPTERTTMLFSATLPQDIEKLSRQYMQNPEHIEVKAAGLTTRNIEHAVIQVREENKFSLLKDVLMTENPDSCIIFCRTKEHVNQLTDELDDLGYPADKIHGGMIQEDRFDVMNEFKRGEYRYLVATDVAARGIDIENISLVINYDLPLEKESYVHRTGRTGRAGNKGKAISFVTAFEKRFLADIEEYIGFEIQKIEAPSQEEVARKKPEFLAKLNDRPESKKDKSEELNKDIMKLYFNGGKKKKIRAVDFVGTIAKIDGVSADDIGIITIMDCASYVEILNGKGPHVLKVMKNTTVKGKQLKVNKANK

T2: YxiN S108C/N464C (UniProt P42305 1-479, C61A;C267A;S108C;N464C)
T2 sequence: T1 sequence with C444N, N464C

T3: YxiN S108C/D429C (UniProt P42305 1-479, C61A;C267A;S108C;D429C)
T3 sequence: T1 sequence with D429C, C444N

T4: YxiN S108C/S229C (UniProt P42305 1-479, C61A;C267A;S108C;S229C)
T4 sequence: T1 sequence with S229C, C444N

T5: YxiN A115C/S229C biotinylated (UniProt P42305 1-479, C61A;C267A;A115C;S229C)
T5 sequence: T1 sequence with C108S, A115C, S229C, C444N


Tests used:
YxiN S108C/N444C [1] = target: T1, YxiN S108C/N444C; experiment: fluorescence anisotropy
YxiN S108C/N464C = target: T2, YxiN S108C/N464C; experiment: smFRET
YxiN S108C/D429C = target: T3, YxiN S108C/D429C; experiment: smFRET
YxiN S108C/S229C = target: T4, YxiN S108C/S229C; experiment: smFRET
[2] = target: T5, YxiN A115C/S229C biotinylated; experiment: smFRET
YxiN S108C/N444C [3] = target: T1, YxiN S108C/N444C; experiment: smFRET

Binder | Kd (YxiN S108C/N444C [1]) | binding result (YxiN S108C/N464C) | binding result (YxiN S108C/D429C) | binding result (YxiN S108C/S229C) | binding result [2] | binding result (YxiN S108C/N444C [3])
CGAGGUCCCAAGGGUUGGGCUGUUCGCCCAUU (structured_RNA) [32mer (FAM)] | 170 nM |  |  |  |  | 
CGAGGUCCCAAGGGUUGGGCUGUUCGCCCAUU (structured_RNA) [32mer] |  | binds | binds | binds | binds | 
UGGGCUGUUCGCCCAU (structured_RNA) [32merHairpin] |  |  |  | binds |  | binds
